Assay results reported in patent publication US20240261333A1 (published 2024).

Columns and labels:
Assay in all cases: anti-FLAG co-IP from lysate of N-FLAG B3GNT2 cells, mass spectrometry
SFXN3 = target: T1, SFXN3 (human, UniProt Q9BWM7 1-321)
T1 construct: also called NP_112233.2
T1 sequence (looked up): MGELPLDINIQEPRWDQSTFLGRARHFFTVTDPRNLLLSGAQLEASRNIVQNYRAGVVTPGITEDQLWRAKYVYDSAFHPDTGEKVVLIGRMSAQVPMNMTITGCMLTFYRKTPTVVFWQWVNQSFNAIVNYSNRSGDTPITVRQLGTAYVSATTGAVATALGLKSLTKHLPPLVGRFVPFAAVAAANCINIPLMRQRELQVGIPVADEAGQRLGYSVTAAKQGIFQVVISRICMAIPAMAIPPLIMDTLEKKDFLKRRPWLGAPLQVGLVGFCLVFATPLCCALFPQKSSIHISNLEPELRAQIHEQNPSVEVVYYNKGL
Protocol: (§1) Cells were plated in 10-cm cell culture dishes and grown to 60-80% confluency. For each condition, two biological replicates were harvested for co-IP. Cells were washed with PBS and 4 mL of lysis buffer (20 mM HEPES, 1% Triton X-100, 150 mM NaCl, 1 mM EDTA, and 10% glycerol) containing protease inhibitor cocktail was added. Cells were scraped and lysate was incubated at 4° C. under rotary agitation for 1 h. Lysate was centrifuged at 14,000×g for 10 min at 4° C. Supernatant was transferred to a new tube and an aliquot was taken as the input. […] For Western blots, 10 μg/mL Chicken Anti-FLAG (Aves labs ET-DY100) and IgY control (R&D Systems AB-101-C) antibodies were biotinylated (Thermo Fisher Scientific 90407) and added to the respective conditions. Lysates with antibodies were incubated at 4° C. under rotary agitation overnight. For each mL of lysate, 50 μL of Pierce Protein A/G Magnetic Beads (Mass spectrometry; Thermo Fisher Scientific 88803) or Pierce Streptavidin Magnetic Beads (Western blot; Thermo Fisher Scientific 88817) was washed twice with lysis buffer. Lysates with antibodies were added to the beads and incubated at 4° C. under rotary agitation for 4 h. Beads were washed with lysis buffer 3 times and resuspended in lysis buffer for storage.
(§2) Magnetic beads were resuspended in 100 mM Tris pH 7.8, reduced, alkylated and digested with trypsin at 37° ° C. overnight. This solution was subjected to solid phase extraction to concentrate the peptides and remove unwanted reagents followed by injection onto a Shimadzu HPLC with fraction collector. Eight fractions were collected and after concentration were injected on a Waters NanoAcquity HPLC equipped with a self-packed Aeris 3 μm C18 analytical column 0.075 mm by 20 cm, (Phenomenex). Peptides were eluted using standard reverse-phase gradients. The effluent from the column was analyzed using a Thermo Orbitrap Elite mass spectrometer (nanospray configuration) operated in a data dependent manner for 54 minutes. The resulting fragmentation spectra were correlated against the known database using Proteome Discover 1.4 (Thermo Fisher Scientific).

KTN1 = target: T2, KTN1 (human, UniProt Q86UP2 1-1357)
T2 construct: also called NP_001072989.1 (+5)
T2 sequence (looked up): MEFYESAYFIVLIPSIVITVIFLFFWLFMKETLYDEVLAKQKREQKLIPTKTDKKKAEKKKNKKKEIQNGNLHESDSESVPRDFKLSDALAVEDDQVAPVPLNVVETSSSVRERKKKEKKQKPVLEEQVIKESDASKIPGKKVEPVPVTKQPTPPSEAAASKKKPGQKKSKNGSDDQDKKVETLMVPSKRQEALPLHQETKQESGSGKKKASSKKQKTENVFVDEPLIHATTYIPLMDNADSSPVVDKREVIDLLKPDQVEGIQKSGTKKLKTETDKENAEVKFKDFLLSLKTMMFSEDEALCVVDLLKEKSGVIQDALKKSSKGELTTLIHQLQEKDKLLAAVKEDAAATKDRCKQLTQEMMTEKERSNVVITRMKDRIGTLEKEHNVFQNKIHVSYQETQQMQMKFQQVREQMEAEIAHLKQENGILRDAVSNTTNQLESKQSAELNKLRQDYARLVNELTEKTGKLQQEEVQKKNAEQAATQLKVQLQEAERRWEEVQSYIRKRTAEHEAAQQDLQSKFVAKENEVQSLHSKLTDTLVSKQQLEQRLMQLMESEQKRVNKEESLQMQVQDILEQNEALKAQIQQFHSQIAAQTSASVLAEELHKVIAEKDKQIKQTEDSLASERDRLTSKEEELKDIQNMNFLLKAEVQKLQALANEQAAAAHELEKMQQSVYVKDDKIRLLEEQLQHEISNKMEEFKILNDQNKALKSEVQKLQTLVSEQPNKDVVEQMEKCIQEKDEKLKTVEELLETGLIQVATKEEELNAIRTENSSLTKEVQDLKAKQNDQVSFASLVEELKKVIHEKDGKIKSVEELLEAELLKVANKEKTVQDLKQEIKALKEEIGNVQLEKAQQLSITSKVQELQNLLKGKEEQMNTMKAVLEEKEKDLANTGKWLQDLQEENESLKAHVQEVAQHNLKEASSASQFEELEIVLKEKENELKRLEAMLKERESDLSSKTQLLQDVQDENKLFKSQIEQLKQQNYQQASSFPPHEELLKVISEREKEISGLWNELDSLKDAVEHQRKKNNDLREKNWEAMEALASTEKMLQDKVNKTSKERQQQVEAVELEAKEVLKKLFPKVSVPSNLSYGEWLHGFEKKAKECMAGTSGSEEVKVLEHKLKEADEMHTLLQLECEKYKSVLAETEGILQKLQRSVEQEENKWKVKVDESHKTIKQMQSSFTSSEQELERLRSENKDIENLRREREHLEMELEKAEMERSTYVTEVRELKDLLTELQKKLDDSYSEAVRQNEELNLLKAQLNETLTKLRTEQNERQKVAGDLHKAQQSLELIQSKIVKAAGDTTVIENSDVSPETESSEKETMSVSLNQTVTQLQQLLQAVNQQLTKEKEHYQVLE
Protocol: as §1, §2

HDGFL2 = target: T3, HDGFL2 (human, UniProt Q7Z4V5 1-671)
T3 construct: also called NP_001001520.1 (+4)
T3 sequence (Q7Z4V5 whole entry): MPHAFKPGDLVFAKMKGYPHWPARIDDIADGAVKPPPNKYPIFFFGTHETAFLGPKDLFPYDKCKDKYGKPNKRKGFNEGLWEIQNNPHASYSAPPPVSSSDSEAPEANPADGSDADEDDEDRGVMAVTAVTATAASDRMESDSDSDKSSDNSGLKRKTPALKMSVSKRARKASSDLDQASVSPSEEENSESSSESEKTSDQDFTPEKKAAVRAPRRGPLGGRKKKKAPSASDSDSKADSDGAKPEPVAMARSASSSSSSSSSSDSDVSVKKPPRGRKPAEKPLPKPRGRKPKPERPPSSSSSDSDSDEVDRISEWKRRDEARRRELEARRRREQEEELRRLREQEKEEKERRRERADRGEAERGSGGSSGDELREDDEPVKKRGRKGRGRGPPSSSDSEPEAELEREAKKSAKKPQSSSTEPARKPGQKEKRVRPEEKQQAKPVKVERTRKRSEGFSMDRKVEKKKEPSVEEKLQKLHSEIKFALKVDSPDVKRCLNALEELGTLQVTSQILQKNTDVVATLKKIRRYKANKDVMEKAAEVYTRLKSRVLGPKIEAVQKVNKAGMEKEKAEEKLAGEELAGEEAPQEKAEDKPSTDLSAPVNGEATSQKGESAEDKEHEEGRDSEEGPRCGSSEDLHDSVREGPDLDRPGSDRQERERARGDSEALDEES
Protocol: as §1, §2

ABCD1 = target: T4, ABCD1 (human, UniProt P33897 1-745)
T4 construct: also called NP_000024.2
T4 sequence (P33897 whole entry): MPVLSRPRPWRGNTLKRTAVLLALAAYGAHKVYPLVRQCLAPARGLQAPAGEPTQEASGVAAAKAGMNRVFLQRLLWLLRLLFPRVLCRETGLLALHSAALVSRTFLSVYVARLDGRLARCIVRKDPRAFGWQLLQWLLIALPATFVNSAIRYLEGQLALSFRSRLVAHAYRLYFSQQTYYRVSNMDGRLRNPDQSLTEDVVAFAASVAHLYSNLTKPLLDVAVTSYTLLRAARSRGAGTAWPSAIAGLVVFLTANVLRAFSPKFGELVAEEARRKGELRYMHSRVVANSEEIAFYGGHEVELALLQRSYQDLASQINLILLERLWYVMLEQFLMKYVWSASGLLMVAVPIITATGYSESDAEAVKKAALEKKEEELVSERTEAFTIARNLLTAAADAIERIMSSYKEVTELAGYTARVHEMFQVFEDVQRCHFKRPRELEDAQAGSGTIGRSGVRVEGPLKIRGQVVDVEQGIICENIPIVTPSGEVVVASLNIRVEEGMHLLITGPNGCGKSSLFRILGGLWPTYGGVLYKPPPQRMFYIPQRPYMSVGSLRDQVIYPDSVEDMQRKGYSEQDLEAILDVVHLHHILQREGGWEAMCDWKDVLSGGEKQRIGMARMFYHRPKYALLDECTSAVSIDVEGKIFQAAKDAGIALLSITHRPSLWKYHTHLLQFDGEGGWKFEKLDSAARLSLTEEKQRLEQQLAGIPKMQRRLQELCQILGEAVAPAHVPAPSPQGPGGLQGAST
Protocol: as §1, §2

Measured: co-IP mass spectrometry count

B1: N-terminal FLAG tagged B3GNT2 (enzyme, human, UniProt Q9NY97 1-397, looked up)
chain: MSVGRRRIKLLGILMMANVFIYFIMEVSKSSSQEKNGKGEVIIPKEKFWKISTPPEAYWNREQEKLNRQYNPILSMLTNQTGEAGRLSNISHLNYCEPDLRVTSVVTGFNNLPDRFKDFLLYLRCRNYSLLIDQPDKCAKKPFLLLAIKSLTPHFARRQAIRESWGQESNAGNQTVVRVFLLGQTPPEDNHPDLSDMLKFESEKHQDILMWNYRDTFFNLSLKEVLFLRWVSTSCPDTEFVFKGDDDVFVNTHHILNYLNSLSKTKAKDLFIGDVIHNAGPHRDKKLKYYIPEVVYSGLYPPYAGGGGFLYSGHLALRLYHITDQVHLYPIDDVYTGMCLQKLGLVPEKHKGFRTFDIEEKNKNNICSYVDLMLVHSRKPQEMIDIWSQLQSAHLKC
notes: Bait of the co-IP; pulled down from cell lysate with mouse anti-FLAG antibody; also called N-FLAG B3GNT2; N-term FLAG; not shown: N-terminal FLAG tag
0: all assays above
